Results reported in patent US20220275333A1 (FATE THERAPEUTICS, published 2022).

Target: T1, human MICA (on target cells: MICA over-expressing P815, MICA+ Nalm6, endogenous on A2058, K562, CaSki) (human, UniProt Q29983 24-383)
T1 sequence (looked up): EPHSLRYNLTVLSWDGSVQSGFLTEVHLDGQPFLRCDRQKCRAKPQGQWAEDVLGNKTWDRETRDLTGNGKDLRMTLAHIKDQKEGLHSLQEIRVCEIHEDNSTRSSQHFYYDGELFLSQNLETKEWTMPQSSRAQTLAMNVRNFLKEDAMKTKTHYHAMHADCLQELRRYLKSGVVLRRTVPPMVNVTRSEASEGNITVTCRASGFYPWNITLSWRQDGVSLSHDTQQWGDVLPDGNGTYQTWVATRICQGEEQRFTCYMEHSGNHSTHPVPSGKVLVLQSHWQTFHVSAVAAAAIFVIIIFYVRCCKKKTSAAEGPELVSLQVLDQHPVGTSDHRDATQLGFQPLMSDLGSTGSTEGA
Experiment: cell-based or functional assay

B1: MICA/B CAR (anti-MICA/B chimeric antigen receptor; version not stated for the experiment) (other)
VH: QIQLVQSGPELKKPGETVKVSCKASGYMFTNYAMNWVKQAPEKGLKWMGWINTHTGDPTYADDFKGRIAFSLETSASTAYLQINNLKNEDTATYFCVRTYGNYAMDYWGQGTSVTVSS
VL: DIQMTQTTSSLSASLGDRVTISCSASQDISNYLNWYQQKPDGTVKLLIYDTSILHLGVPSRFSGSGSGTDYSLTISNLEPEDIATYYCQQYSKFPRTFGGGTTLEIK
EC50 of cytotoxicity (% Caspase 3/7+ target cells) of MICA/B CAR+ T cells on MICA+ Nalm6 cells over E:T ratios, 4 hours: ~1.9 E:T ratio | EC50 of cytotoxicity (% Caspase 3/7+ target cells) of MICA/B CAR+ iNK cells on P815 MICA+ cells over E:T ratios, 4 hours: ~5.2 E:T ratio
